test: soluble on expression in E. coli; label from the status in PepcDB or PDB records

Sequence	soluble on expression in E. coli
MGSDKIHHHHHHMSYRLNIENLREFMSETSDSCEHLVFPQKRGIYRAQKEWIASGITLFKCTLRAEDEVVIEQKESAFFGGAFIHVVLEGGVSFETSQPKGSFEYRRGYTTAMEALHPSGITRVARGVSVHSIGIHIHEDFLRSREIEWKKIAKEPRLLPSNPKVEWIAKSLYQGRGGAQSDADRLRVESQILEILSCELQREETRGGMERVKLSGYDLEALHKARVILEQNLKNPPSLIELSRAIHLNEFKLKFGFKRLFGVAPYEMLFLFRMQRARGLLEEGIFSVGEVAKEVGYAQQSSFSAAFFRHFGVLPKEVAKSWKD	not soluble
MSLGQVGVGRVLQRYIILKGRNSEHLFVAAESLIAIDRLPAAIITRLTQTNDPLGEVMAASHIETFKEEAKVWVGDLPGWLALHGYQNSRKRAVARRYRVISGGQPIMVVTEHFLRSVFRDEGHHHHHH	not soluble
MAHHHHHHMIIEKGEPLNKEIIDHVLDHVTEFPTPTMVSVGDGKADCIVLENFLTHEECDQLVAACEKVGYTFWLQKNHHDADGEATCDSGSKAVRVVDTIEANFPHLSAKLYERIARVVSLKPKCFSEDMPNAEELFERELAGTWVPHALSENLLFGRYHPGGHFMPHVDGATILDLNTRSFYTLLIYLNDCLHGGETFIFAGEQCNVMYLDEKENQYRGNATQRVGAVYPKKGSAAFFYYNLLHEGAPVLEGHKYICRADLLYHRTPTIFTSEADEKAFKAYQEARLAESHGDAERACQLFQRVRKLSKGVASIFQIE	soluble
GSSHHHHHHSSGLVPRGSHMQTTNAVDLGNPDLYTTLERHARWRELAAEDAMVWSDPGSSPSGFWSVFSHRACAAVLAPSAPLTSEYGMMIGFDRDHPDNSGGRMMVVSEHEQHRKLRKLVGPLLSRAAARKLAERVRIEVGDVLGRVLDGEVCDAATAIGPRIPAAVVCEILGVPAEDEDMLIDLTNHAFGGEDELFDGMTPRQAHTEILVYFDELITARRKEPGDDLVSTLVTDDDLTIDDVLLNCDNVLIGGNETTRHAITGAVHALATVPGLLTALRDGSADVDTVVEEVLRWTSPAMHVLRVTTADVTINGRDLPSGTPVVAWLPAANRDPAEFDDPDTFLPGRKPNRHITFGHGMHHCLGSALARIELSVVLRVLAERVSRVDLEREPAWLRAIVVQGYRELPVRFTGR	soluble
MGSDKIHHHHHHMKTVNVHGFEASSKEEFQVIQSSLVKRIKLISDFKEEDIKLCAGVDLAYWTKGEKQYGVCCIIVIDYNTGEIIEKAYDYGEIEVPYMPGFLAFRELPLVIKTVKKLKNEPDIFMFDGNGYLHYNHMGIATHASFFLNKPTIGVAKSYLKVAGVDFEMPESFEGAFKDIVINEEVYGRVLRTKKDVKPIFVSCGNYIDLETCTKICSKLINNDSRLPITVRLADLETHKRRSELS	not soluble
TFRLVIACPDGVGIVAKVSNFLATYNGWITEASHHSDNDNGWFFMRHEIRADSLPFDLDGFRQAFAPIAREFSMEWRITDSEVKKRVVLMASKESHCLADLLHRWHSGELDCEIPCVIANHDDLRSMVEWHGIPYFHVPVDPQDKQPAFDEVSRLIDEHGADCIVLARYMQILPPDLCRKYAHQVINIHHSFLPSFIGAKPYHQASKRGVKLIGATSHYVTEELDAGPIIEQDVVRVTHRDNVEDMVRLGKDVEKLVLARGLRYHLEDRVLVH	not soluble
DIQMTQSPASLSASVGETVTITCRASGNIHNYLAWYQQKQGKSPQLLVYYTTTLADGVPSRFSGSGSGTQYSLKINSLQPEDFGSYYCQHFWSTPRTFGGGTKLEIKRADAAPTVSIFPPSSEQLTSGGASVVCFLNNFYPKDINVKWKIDGSERQNGVLNSWTDQDSKDSTYSMSSTLTLTKDEYERHNSYTCEATHKTSTSPIVKSFNRNEC	soluble
MNHVAVIGGGIIGASWAVVFARRGLEVTIVERDAACLAGLPARLAGMIERSASLLGAGEQPGDVAARIGATDALAAAVGRADYVQEAVSENLALKRTLFAELDALAPAHALLASSTSTYGASQFTEALAGRARCLVAHPMTPPHLSPVVEMAASAWTDPQVLAGAEAFMRSLGQHPVRIRKEIPGFVLNRLQGALLMEMFRVIADDVISPADADALISQGLGLRWATLGPLEGVDLNAPGGIADYLQRYGHIFNDMAVGQGLPAPVDAELISALDGAMRAALPLERLEAKRGWRDRAIAGVRVALHDYTGEKPLEHHHHHH	not soluble
MGSDKIHHHHHHMDRLQLLEYWLKALYPDQPCTLSPASADASFRRYFRASLPGKTLIVMDAPPQQEDCRPFLHAASIFSRASVHVPAIVAQDLNQGFLLLSDLGTTTYLQALTAAPENANRLYQDAIDALIKIQCASQKNIFPEYDRILLSRELELFPDWYMTRHLHAPPDDDQKNTLKTVFNLILANNLAQPQVFVHRDYHSRNLMVSTPNPGIIDFQDAVLGPITYDLVSLFKDAYIQWEEAQILDWMIRYWEKARHAGLPVATDFSIFYRDFEWMGVQRHLKVLGIFARLCYRDNKPTYLQDMPAIMQYLRQTCERYSELHPLSRLLDRLEDRQAETGYTF	not soluble
KVNNIMKKLLSSMILIWGGLISFSNNITGPRHRIEISAGFINDRQNATMGNNIFISNSISYIPEWKIQVNKKFDVTFGPKVVLNFSNFITVSNGTAKAASSSNNANPVTITPSLILGGELDFNYSVKENLKIYTGLEVGTGIGFQISTVGSNVQNPEFRTSSKIALGVKINEKYNIAIYTADIKGLLGLEAGYTF	not soluble
SNAMPMTLDLQPGQRLARGVARHLRAHGFVSVEEFVPARGLRVDVMGLGPKGEIWVIECKSSRADFQADAKWQGYLEWCDRYFWAVDMEFPAELLPAESGLLIADAYDAEIVRMAPEQKLAPARRKVLIQKFATHAARRLQALRDPEGHGIFE	soluble
MSAEYGQYGYYGGAGGAQTTTTPAAALAASIPATSVYGEQRPTFSEDGTGAPYSTILNLVGSAAVNSDISYDTSSKDPHMIRARVFIGNIARAIITRDDIIELFRPFGKIIAVNYFAQQGFGFVQFNEAGSADESCRSLNGMSWKACCLDVHLAMLGSLRKPTGNEGRQGNTIAPAPLPVGKPLTQHAVDTSAQSAKRPYEDEEYEIFKQNKRNKQFANGDTTINEQLAPNEMCDTMVCGYCRFVTSDFEEFKEHRIAGCNKYKDPEEPRHRLKCATCSQRFLGAWGLLEHLTDFHRMLLYTEEKMTPNDLAQMRGGSVSTPSSIPETPASGSAAPAAPNSANSTPSHHIVEGAPLSYSSNNGTPQI	not soluble
MMFLNKVDKRKIALFQLLENAPMLTESKETVMQELELSEFIVNKTVAELNADFIEFGLSEDFQIVSDGIFLTLNESGTETSATLIDCYIKESLRFAMFQDFFFQRFDSVNEFALEHFVSHTLAYKEFKELKKMLENYQITINKEFHLVGNETNLREVTTLVFLQLYQRDFSLYGKKVLEQIRNFELFFSEKVHLNQRAGYAQAKCFHFLAVSLVRTQQQFYVEKKVDSQVLKQLAGDNQQNVFNWLESLQIPEPQRTNEGNYLLLFLIAEEWLQVASAALCQRFAEIQQLNRDLLSYLKIQFQLSEEVLQGFEQKVTIVHFKLFHFPIEANYSYLKMDITYFAETYTEYFSASRQFIQEQKTNPAVWDARRFLFYRYLLLMVDALPLKKVLAPITLCVDFSFGEAYNRMIQKNIEKITEWNIIFKAHVDESVQLILSDIHFVDWPEITQIIWLAPPRPVDWSHFIKTLSALRPHSGEEKKKSS	not soluble
MSLKRRQTNIIGVYLADYGGSFYGELLEGIKKGLALFDYEMIVCSGKKSHLFIPEKMVDGAIILDWTFPTKEIEKFAERGHSIVVLDRTTEHRNIRQVLLDNRGGATQAIEQFVNVGSKKVLLLSGPEKGYDSQERLAVSTRELTRFGIPYEIIQGDFTEPSGYAAAKKILSQPQTEPVDVFAFNDEMAIGVYKYVAETNYQMGKDIRIIGFDNSELGAFVQPRLATIAYSKHRWGMVAAEKIIHLMRGEAAESEHIYTRFIEGESFPSEGHHHHHH	soluble
MSLRGQVHSVFVVVPRFNLTTLITMIETMRIGNYLSSERLFSWEVTSFDGLNLGASNGVRVHLDVEPDQTAPADQVFVLASWGGEHYQNKALASWLRKRARQGERICAVELGCYLVARAGLMDGKEATTHWSWINGFQEKFDQISVVEQLFTIDGRILTCAGGMAGVDLMLRLIEQSHGAGFSGEIADQMLHNPIRKGSSSQRRTMGRGTESILPLVRQAMTLIERNIEEPLTVPQIAAALDVSQRQLERQFKKHVGCTVVQFGLLRRLQNARVLLIATELSVREIATASGFNTLSHFSYSFSKFFGRRPSDYREAWPSNEAAPTWPGTLSDFLHAINSGDKREGHHHHHH	not soluble
MSLRKRLTQLFPFLLPVRRIQRKLCFYTKMYLDRNHYAKAKAPEFLPFCIYETKSKLLNENTGMDIKYQENKVFNLRLAAEPVNGLLIRPGETFSFWQRVRYAEKNERYKDGLCVVNDELVTVPGGGLCHLSNLLFWLFLHTPLTIVERHAHEIKDFPSPDEDEPDGVDATIHEGWLDLKVKNDTNLTFQIELSIDGPYIYGRIFMDQAKGYSYEVVNRDKRFLQKEGKIFERVSVCRQVIDNKSKQVISENMLYTDVFEIGYPLPEGTAIAEEGHHHHHH	soluble
MSLSQPQPPSRLLVMKFGGTNMQSAHAIRHSASLAGRSVREGVKVVVVVSAMAGVTNGLLHLADAAQSGDIARANDEIAALRTRHFTAAQELGAAPDSETVRELRELHETLRQAVYGVYLLRELTPRSRDLIVAFGERLSAPLMSLALEQSGLRARHLTGGEAGILTDTNFGNARPLPGTYERVGDRLSGFLSAGVTPVIAGFMGETEQGAITTLGRGGTDFSATIVGKALGADEVWAWKDVDGVMSADPRVVGDASNIGVLSYGEVMELAYFGAKVLHPLAVTPLQDSGIPLRVKSAADPDFAGTLVRSQAEEIPGRPVKAVTAIKNVSLLTVTGAGVLGVPEVIASVFTAIARENITLLMVSQSSSMSNVSLAVPSADAARALQALRAGLSSELNVEETNGVAVLAIVGSGMRGQQGVSARLFTALASEDINILMISQGSSELNISVALSGEEVDRATAAVHAAFTLSQPEGHHHHHH	not soluble
MAHHHHHHMTSFMLATNCPDELCCALCLDSWKKPVELQPCGHIFCQECIGAPRVCPVCRAPVNCTKQPHRSLVNLAQNLPVRCSSCGWTGRREGSDSHTCPTASWSGSTEAPSTTNAQSTCQGSRQQSVADTPWLRYGLTQEEYDSIVALFVFFDSDESGHLCREEMGRLARWLNFARTDDDIDRMFREMDEDGTGTLCLEEFLSWLSKNRPDPSVLYGMSQQQYNCVMMQFRLYDRDRDGFLDADDFSKLAVRIGDVPDIESGMQLFRSITTGHCEKIGLHQFLLYCVGRMFR	not soluble
MSLLTKSAENKRNRKDDSMRPGQQLTLSIDHQTDFGYFLTDGEDTILLHNSEMTEDIEDRDEVEVFIYVDQQERLAATMKIPIISADEYGWVEVVDKVEDMGVFVDVGLSKDALVATEHLPPYEDVWPQKGDKLYCMLKVTNRGRMFAKPAPEDIISELFTDASEDLMNKELTGTVYRLIASGSFVITDDGIRCFIHPSERKEEPRLGSRVTGRVIQVKEDGSVNLSLLPRKQDAMSVDAECILTYMRMRNGAMPYSDKSQPDDIRERFNMSKAAFKRALGHLMKNGKVYQENGWTYEKKEGGSHHHHHH	soluble

Reference: the DeepSol protein solubility set
